In patent US20250304697A1 (ONECHAIN IMNUNOTHERAPEUTICS S L, published 2025):

How the values were obtained:
[1] = biological target: mCAR-CD1a (murine CAR-CD1a, scFv derived from the NA1/34.HLK clone) expressed on transduced T cells; assay: FACS of mCD1a-CAR-T cells incubated with rCD1a (25 nM by the legend paragraph 24, 200 nM by Example 11 paragraph 349), detection with anti-HIS-APC; UT cells in the same gate 0,2% [cont.) B]
[2] = biological target: T1, human recombinant protein extracellular domain of CD1a (rCD1a), produced with a 6xHis tag as a dimer with … (human, UniProt P06126 17-300; P61769 21-119); assay: SPR, ratio of KD against mscFv-CD1a
T1 construct: Used soluble in flow cytometry on CAR-T cells (detected with anti-HIS-APC) and immobilized on CM5 chips in SPR; also called rCD1a-HIS; recombinant protein CD1a; not shown: 6xHis tag

[3] = biological target: T1, human recombinant protein extracellular …; assay: SPR, Biacore T-200, rCD1a immobilized on CM5 chip, soluble scFv, 1:1 binding fit, 298 K

Row | Molecule | % of rCD1a positive bound cells [1] | fold higher affinity than the murine scFv (mscFv-CD1a) [2] | Kd [3] | koff [3] | kon [3]
1 | human recombinant protein extracellular domain of CD1a (rCD1a), produced with a 6xHis tag as a dimer with b2-microglobulin (hB2M) (from UniProt P06126 17-300; P61769 21-119) | 23.3% |  |  |  | 
2 | h(2)scFv-CD1a: recombinant humanized (H2 version) scFv anti-CD1a with a 6xHis tag, from XtenCHO cells (scFv, also called hscFv-CD1a; humanized2_scFv-anti-CD1a; not shown: 6xHis tag) scFv: QVQLQQSGAEVKKPGASVKVSCKASGYAFSTYTMHWVRQAPGQGLEWMGYINPNSASTSYAQKFQGRVTMTADKSTNTAYMELSSLRSEDTAVYYCARGFYTMDYWGQGTLVTVSSGGGGSGGGGSGGGGSGGGGSRDIQMTQSPSSLSASVGDRVTITCQASQDINKYIAWYQFKPGKGPRLLIHYTSTLEPAIPSRFSGSGSGREYTFTISSLQPEDIATYYCLHYDNLPWTFGGGTKVEIKRA |  | 2.4 fold | 21 nM | 0.0012 s⁻¹ | 56300 M⁻¹ s⁻¹
3 | mscFv-CD1a: recombinant murine scFv anti-CD1a with a 6xHis tag, from XtenCHO cells (scFv) scFv: QVQLQQSGAELARPGASVKMSCKASGYAFSTYTMHWVKQRPRQGLEWIGYINPNSASTSYNENFKDKATLTADKSSNTAYMHLSSLTSEDSAVYYCARGFYTMDYWGQGTSVTVSSGGGGSGGGGSGGGGSGGGGSRDIQMTQSPSSLSASLGGKVTITCQASQDINKYIAWYQFKPGKGPRLLIHYTSTLQPAIPSRFSGSGSGREYSFSISNLEPEDIATYYCLHYDNLPWTFGGGTKLEIKRAHHHHHH |  |  | 50 nM | 0.00121 s⁻¹ | 24600 M⁻¹ s⁻¹
